Experimental data: patent publication US20110293610A1 (published 2011)
Positions count from the first letter of the chain named.

B1: I067B10 (scFv)
scFv: QMQLVQSGAEVKKPGASVKVSCKASGYTFTSYYMHWVRQAPGQGLEWMGWINAGNSNTKYSQKFQGRVTITSDTSASTAYMELSGLRSEDTAVYYCARDRGAPNYDILTGYYAPAQGVAFDIWGKGTLATVSSGGGGSGGGGSGGGGSQSVLTQPPSVSAAPGQKVTISCSGSTSNIGNNYVSWYQQHPGKAPKLMIYDVSKRPSGVPDRFSGSKSGNSASLDISGLQSEDEADYYCAAWDDSLSEFLFGTGTKLTVLG
B2: I064C07 (scFv)
scFv: QVQLVQSGAEVKKPGSSVKVSCKASGGTFSSYAISWVRQAPGQGLEWMGGIIPIFGTANYAQKFQGRVTITADDLTRTAYMEMSSLKFEDTAVYYCASSEGTIFGVDWGRGTLVTVSSGGGGSGGGGSGGGGSDIQMTQSPSFLSASVGDRVTITCRASQGINNYLAWYQQKPGRAPKLLMYAASSLQSGVPSRFSGSGSGTDFTLTISSLQPEDFATYYCLQDSDYPLTFGGGTKLEIKR
B3: I067F05 (scFv)
scFv: QVQLQQSGAEVKKPGSSVKVSCKASGGTFSSYAISWVRQAPGQGLEWMGRIIPIVNMANYAQKFQGRVTLTADKSTGTAYMELTSLRSEDTAVYYCARENYDSLTGYYGAFDIWGKGTMVTVSSGGGGSGGGGSGGGGSQSVLTQPASVSGSPGQSITISCTGTSSDVGGYNYVSWYQQHPGKAPKLMIYEGSKRPSGVSNRFSGSKSGNTASLTISGLQAEDEADYYCSSYTTRSTRVFGGGTKLTVLG
B4: I080B01 (scFv)
scFv: QVQLVQSGAEVKKPGASVKVSCKASGYTFTNYYMHWVRQAPGQGLEWMGIINPRDVSTTYAQKFQGRATMTRDTSTSTVYMELNSLRSEDTAVYYCAREYSGYHYVEGGSYAMDVWGQGTMVTVSSGGGGSGGGGSGGGGSALSYVLTQPPSASGTPGQRVTITCSGSSSNIGNYYVNWYQQVSGTAPKLIIYRNNQRPSGVPDRFSGSKSGASASLAISGLRSEDEADYFCAAWDDSLREFVFGTGTKVTVLG
B5: I082A05 (scFv)
scFv: QVQLQQSGGGVVQPGRSLRLSCAASGFTYSSYAMHWVRQAPGKGLEWVAVISYDGSIKYYADSVKGRFTISRDNSKNTLYLQMNSLRAEDTAVYYCARDLDFDYWGKGTLVTVSSGGGGSGGGGSGGGGSQSVLTQPPSVSAAPGQKVTISCSGSTSNIGNNYVSWYQQHPGKAPKFMIYDVSKRPSGVSNRFSGSKSGNTASLTISGVQAEDEADYYCSSYTSASTVIFGGGTKLTVLG
B6: I083B12 (scFv)
scFv: QVQLVQSGAEVKKPGASVKVSCKASEYTFYNHYMHWVRQAPGQGLEWMGFINPSGDAAWYAQKFQGRVTLTRDTSTRTVYMELSGLTSEDTAVYYCARESGAGGYYYDDYWGKGTLVTVSSGGGGSGGGGSGGGGSALSYVLTQPPSVSVAPGKTASIPCGGNNIGSKSVQWYLQKAGQAPILVVYDDSDRPSGIPERFSGSNSGNTATLTITRVEAGDEADYYCQVWDSSSDHWFFGGGTKLTVLG
B7: I079F08 (scFv)
scFv: QMQLVQSGGGVVQPGRSLRLSCAASGFTFSSYGMHWVRQAPGKGLEWVAVISYDGSIKYYADSVKGRFTISRDNSKNTLYLQMNSLRAEDTAVYYCARYYYHSSGSDAFDIWGQGTLVTVPSGGGGSGGGGSGGGGSQSVLTQPPSASGTPGQRVTISCSGSSSNIGSNTVNWYQRLPGAAPQLLIYNNNQRPSGVPDRFSGSKSGTSASLAISGLQSEDEADYYCAAWDDSLNGWVFGGGTKLTVLG
B8: I079F06 (scFv)
scFv: QVQLVESGGGLVQPGGSLRLSCAASGFTFSSYWMSWVRQAPGKGLEWVANIKQDGSEKYYVDSVKGRFTISRDNAKNSLYLQMNSLRAEDTAVYYCARDNLHAAFDIWGRGTLVTVSGGGGGSGGGGSGGGGSDIQMTQSPSTLSASIGDRVTITCRASEGIYHWLAWYQQKPGKAPKLLIYKASSLASGAPSRFSGSGSGTDFTLTISSLQPDDFATYYCQQYSNYPLTFGGGTKLEIKR
B9: I082G01 (scFv)
scFv: QMQLVQSGAEVKKPGASVKVSCKASGYTFTSYYMHWVRQAPGQGLEWMGLVHPNDGSVNYAQKFKGRVTMTRDTSTSTVYMELSSLRSDDTAVYYCARDRGSGWPNWYFDLWGQGTLVTVSSGGGGSGGGGSGGGGSDIQMTQSPSTLSASIGDRVTITCRASEGIYHWLAWYQQKPGKAPKLLIYKASSLASGAPSRFSGSGSGTDFTLTISSLQPDDFATYYCQQYSNYPLTFGGGTKLEIKH
B10: I079B12 (scFv)
scFv: EVQLVQSRGGVVQPGRSLRLSCAASGLTFSSYGMHWVRQAPGKGLEWVAVISYDGRNKYYADSVKGRFTTSRDNSKNTLYLQMNSLRAEDTAVYYCAKWTSSGAFDIWGRGTLVTVSSGGGGSGGGGSGGGGSDIQMTQSPSTLSASIGDRVTITCRASEGIYHWLAWYQQKPGKAPKLLIYKASSLASGAPSRFSGSGSGTDFTLTISSLQPDDFATYYCHQYSNYPLTFGGGTKLEIKR
B11: I082D07 (scFv)
scFv: B10 scFv with H222Q
B12: I080E05 (scFv)
scFv: EVQLVQSGAAVKKPGASVKVSCKASGYTFTTYYIHWVRQAPGQGLEWMGIINPVNGNTIYAQKFQGRVTMTRDTSTGTVNMELSSLRSEDTAVFYCVREGGGDAYDVAPYYFDYWGQGTLVTVSSGGGGSGGGGSGGGGSAQAVLTQPSSVSGAPGQRVTISCTGSSSNIGDGYDVHWYQQLPGTAPKLLIYGNSHRPSGVPDRFSGSKSDTSASLAITGLQVEDEADYFCHSYDSSVSGWIFGGGTKLTVLG
B13: I079C01 (scFv)
scFv: EVQLVESGGGLVQPGGSLRLSCAASGFTFSDYGMHWVRQRPGKGLEWIAFIGSDGSNKYYGDTVKGRFTISRDNAKNSLYLQMNSLRAEGTAVYYCARDWDMDVWGQGTMVTVSSGGGGSGGGGSGGGGSHVILTQPRSVSGSPGQSVTISCTGTSSDVGGYHYVSWYQQHPGKAPRLMIYEVTKRPSGVSNRFSGSKSGNTASLTISGVQAEDEADYYCSSYTSASTVIFGGGTKLTVLG
B14: I084C04 (scFv)
scFv: VQLVQSGAEVKKPGASVKVSCKASGYTFTSYGISWVRQAPGQGLEWMGWINPNSGGTNYAQKFQGRVTMTRDTSISTAYMELSRLRSDDTAVYYCARNLWGLDYWGKGTMVTVSSGGGGSGGGGSGGGGSSELTQDPAVSVALGQTVRITCQGDSLRSYYASWYQQKPGQAPVLVIYGKNNRPSGIPDRFSGSSSGNTASLTITGAQAEDEADYYCNSRDSSGNHVVFGGGTKLTVLG
B15: I079B05 (scFv)
scFv: GVQLVESGGGLVKPGGSLRLSCATSGFRFSDYAMTWVRQAPGKGLEWVSSITGSGGGTHYAGSVRGRFTISRDNSKNTVYLQMNNLRPEDTAVYYCASFVLDYWGKGTLVTVSSGGGGSGGGGSGGGGSQSVLTQPASVSGSPGQSITISCTGTSSDVGGYNYVSWYQQHPGKAPKLMIYEGSKRPSGVSNRFSGSKSGNTASLTISGLQAEDEADYYCSSYTTRSTRVFGGGTKLTVLG

Target: T1, biotinylated B Lymphocyte Stimulator, soluble form (human, UniProt Q9Y275 134-285, biotinylated with NHS-biotin, molar ratio 20:1 biotin:protein)
T1 construct: also called bio-B Lymphocyte Stimulator; free B Lymphocyte Stimulator
Test: phage scFv, receptor binding inhibition on IM9 cells
Protocol: All of the unique phage scFvs from panel 2 were assessed for their ability to inhibit B Lymphocyte Stimulator binding to its cognate receptor on IM9 cells. The biotinylation of B Lymphocyte Stimulator, maintenance of IM9 cells and receptor binding inhibition assay were performed as described in Example 3.

Binding result, binds:
B1, B2, B3

Target: T2, HIS-tagged B Lymphocyte Stimulator (human, UniProt Q9Y275 71-285)
T2 construct: Expressed in E. coli; also called HIS-B Lymphocyte Stimulator; histidine-tagged B Lymphocyte Stimulator; not shown: histidine tag from the pQE9 vector
Test: BIAcore, periplasmic scFv over high density HIS-BLyS surface
Protocol: All BIAcore analysis was performed on BIAcore 2000 machines, using the BIAcore 2000 control software and evaluated using the BIAevaluation 3.0 software. A high density His-tagged B Lymphocyte Stimulator surface (>1000 RU HIS-B Lymphocyte Stimulator coupled) was prepared in flow cell 2 by amine coupling to a CM5 chip. A new CM5 chip was inserted into the BIAcore and a sensorgram started over flow cell 2 with HBS buffer at a flow rate of 5 μl/min. The NHS and EDC solution were mixed 1:1 before injecting 30 μl over the CM5 surface. Fifty μl HIS-B Lymphocyte Stimulator (at 10 μg/ml in Sodium acetate buffer, pH4) was injected and allowed to couple to the surface. Thirty μl of ethanolamine-HCl solution was then injected to block free NHS esters. Prior to using the chip, 10 μl of 4M Guanidine hydrochloride in HBS was injected over the surface to strip the surface of non-covalently bound B Lymphocyte Stimulator. A blank surface (no HIS-B Lymphocyte Stimulator) was also prepared over flow cell 1 so that non-specific binding effects can be subtracted from the HIS-B Lymphocyte Stimulator binding curves.
The 96-well plate containing periplasmic scFvs was secured inside the BIAcore. Two ml of 4M Guanidine hydrochloride in HBS was placed in a rack inside the BIAcore for regeneration of the HIS-B Lymphocyte Stimulator surface between samples. The sensorgram was run over flow cells 1 and 2 at a flow rate of […].

Binding result, binds:
B4, B5, B6, B7, B8, B9, B10, B11, B12, B13, B14, B15
